{"source": "the supplement of paper PMC10724198", "note": "± gives the standard deviation of the averaged measurements.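 Also: PSI is a weighted mean of sequencing reads over stability bins, variants kept only with over 10 reads, mCherry proximal and sfGFP distal, peptide attached via GGGS linker.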"}
{"test_system": "Saccharomyces cerevisiae", "experiment": "protein stability index of tFT-peptide fusion (C-terminal peptide) (PSI (0-1 scale)); higher = more stable (slower turnover)", "conditions": "genetic background: wild type; temperature: 30 C"}
{"sequence": "SLLLLSLCRFVG", "protein stability index": "0.372 ± 0.026"}
{"sequence": "SLPIFSGVASVR", "protein stability index": "0.694 ± 0.022"}
{"sequence": "SLSCYSFFVLAL", "protein stability index": "0.482 ± 0.0072"}
{"sequence": "SLVIVLPALIFL", "protein stability index": "0.467 ± 0.035"}
{"sequence": "SPAIRAILAPAG", "protein stability index": "0.445 ± 0.034"}
{"sequence": "SPLASLRFWCFC", "protein stability index": "0.437 ± 0.015"}
{"sequence": "SPPPLFLIVLHL", "protein stability index": "0.4283 ± 0.0032"}
{"sequence": "SRCLALVICYRV", "protein stability index": "0.265 ± 0.011"}
{"sequence": "SRGKMTIVSNQI", "protein stability index": "0.574 ± 0.15"}
{"sequence": "SRGLVPMANRYC", "protein stability index": "0.298 ± 0.045"}
{"sequence": "SRPGRWRLYYVS", "protein stability index": "0.401 ± 0.098"}
{"sequence": "SRSVLLCFCWLC", "protein stability index": "0.347 ± 0.011"}
{"sequence": "SVFCSLFLFLFY", "protein stability index": "0.422 ± 0.037"}
{"sequence": "SVGCCLLCFFVL", "protein stability index": "0.425 ± 0.028"}
{"sequence": "SWMSQFSILLTA", "protein stability index": "0.285 ± 0.043"}
{"sequence": "SYVLLQSYVSLV", "protein stability index": "0.451 ± 0.021"}
{"sequence": "TCVTLRYRLTFE", "protein stability index": "0.508 ± 0.11"}
{"sequence": "TFLFPLPFLFFI", "protein stability index": "0.0963 ± 0.016"}
{"sequence": "TFRPWPLHILAL", "protein stability index": "0.257 ± 0.029"}
{"sequence": "THRAVGIGLRCC", "protein stability index": "0.358 ± 0.025"}
{"sequence": "TIRKCIIKWIKI", "protein stability index": "0.368 ± 0.016"}
{"sequence": "TKDFVIKKTKIS", "protein stability index": "0.169 ± 0.021"}
{"sequence": "TLDWKFGRGGIG", "protein stability index": "0.375 ± 0.0046"}
{"sequence": "TVLGRDFALSVC", "protein stability index": "0.4599 ± 0.00056"}
{"sequence": "TVYMVIRVIVWG", "protein stability index": "0.207 ± 0.027"}
{"sequence": "TYCFRVCAWRAN", "protein stability index": "0.341 ± 0.016"}
{"sequence": "VACLRLTVYVMG", "protein stability index": "0.193 ± 0.028"}
{"sequence": "VASYVCIGVVWV", "protein stability index": "0.351 ± 0.035"}
{"sequence": "VCFLCIWLYSED", "protein stability index": "0.344 ± 0.026"}
{"sequence": "VCLFFFGYWCCL", "protein stability index": "0.501 ± 0.024"}
{"sequence": "VCLFRLVVFFPV", "protein stability index": "0.349 ± 0.005"}
{"sequence": "VCLLFRFCCWFW", "protein stability index": "0.371 ± 0.017"}
{"sequence": "VCTFLLVSFFLS", "protein stability index": "0.326 ± 0.017"}
{"test_system": "Saccharomyces cerevisiae", "experiment": "protein stability index of tFT-peptide fusion (C-terminal peptide) (PSI (0-1 scale)); higher = more stable (slower turnover)", "conditions": "genetic background: cdc34-1; temperature: 37 C", "method": "(§1)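 MPS profiling in S. cerevisiae of the tFT-X12 degron library: putative degron peptides plus stable controls, 12 aa, fused to the C-terminus of a sfGFP-mCherry timer. Cells are FACS-sorted into 8 mCherry/sfGFP bins and deep-sequenced. PSI runs from 0 (unstable) to 1 (stable). Backgrounds are wild type, das1Δ and doa10Δ at 30 °C, and wild type, das1Δ, cdc34-1 and cdc53-1 at 37 °C; 2-3 technical replicates each.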"}
{"sequence": "SLLLLSLCRFVG", "protein stability index": "0.626 ± 0.022"}
{"sequence": "SLPIFSGVASVR", "protein stability index": "0.677 ± 0.014"}
{"sequence": "SLSCYSFFVLAL", "protein stability index": "0.513 ± 0.035"}
{"sequence": "SLVIVLPALIFL", "protein stability index": "0.463 ± 0.026"}
{"sequence": "SPAIRAILAPAG", "protein stability index": "0.476 ± 0.059"}
{"sequence": "SPLASLRFWCFC", "protein stability index": "0.68 ± 0.059"}
{"sequence": "SPPPLFLIVLHL", "protein stability index": "0.495 ± 0.0063"}
{"sequence": "SRCLALVICYRV", "protein stability index": "0.539 ± 0.041"}
{"sequence": "SRGKMTIVSNQI", "protein stability index": "0.6525 ± 0.00094"}
{"sequence": "SRGLVPMANRYC", "protein stability index": "0.659 ± 0.07"}
{"sequence": "SRPGRWRLYYVS", "protein stability index": "0.6867 ± 0.0067"}
{"sequence": "SRSVLLCFCWLC", "protein stability index": "0.356 ± 0.055"}
{"sequence": "SVFCSLFLFLFY", "protein stability index": "0.477 ± 0.025"}
{"sequence": "SVGCCLLCFFVL", "protein stability index": "0.523 ± 0.012"}
{"sequence": "SWMSQFSILLTA", "protein stability index": "0.0938 ± 0.037"}
{"sequence": "SYVLLQSYVSLV", "protein stability index": "0.566 ± 0.017"}
{"sequence": "TCVTLRYRLTFE", "protein stability index": "0.638 ± 0.11"}
{"sequence": "TFLFPLPFLFFI", "protein stability index": "0.0467 ± 0.0054"}
{"sequence": "TFRPWPLHILAL", "protein stability index": "0.195 ± 0.0033"}
{"sequence": "THRAVGIGLRCC", "protein stability index": "0.558 ± 0.042"}
{"sequence": "TIRKCIIKWIKI", "protein stability index": "0.591 ± 0.032"}
{"sequence": "TKDFVIKKTKIS", "protein stability index": "0.537 ± 0.017"}
{"sequence": "TLDWKFGRGGIG", "protein stability index": "0.315 ± 0.0073"}
{"sequence": "TVLGRDFALSVC", "protein stability index": "0.455 ± 0.0056"}
{"sequence": "TVYMVIRVIVWG", "protein stability index": "0.129 ± 0.023"}
{"sequence": "TYCFRVCAWRAN", "protein stability index": "0.603 ± 0.049"}
{"sequence": "VACLRLTVYVMG", "protein stability index": "0.0455 ± 0.0053"}
{"sequence": "VASYVCIGVVWV", "protein stability index": "0.4298 ± 0.0038"}
{"sequence": "VCFLCIWLYSED", "protein stability index": "0.268 ± 0.028"}
{"sequence": "VCLFFFGYWCCL", "protein stability index": "0.565 ± 0.066"}
{"sequence": "VCLFRLVVFFPV", "protein stability index": "0.234 ± 0.039"}
{"sequence": "VCLLFRFCCWFW", "protein stability index": "0.351 ± 0.024"}
{"sequence": "VCTFLLVSFFLS", "protein stability index": "0.223 ± 0.0027"}
{"test_system": "Saccharomyces cerevisiae", "experiment": "protein stability index of tFT-peptide fusion (C-terminal peptide) (PSI (0-1 scale)); higher = more stable (slower turnover)", "conditions": "genetic background: cdc53-1; temperature: 37 C", "method": "as §1"}
{"sequence": "SLLLLSLCRFVG", "protein stability index": "0.686 ± 0.017"}
{"sequence": "SLPIFSGVASVR", "protein stability index": "0.737 ± 0.033"}
{"sequence": "SLSCYSFFVLAL", "protein stability index": "0.543 ± 0.027"}
{"sequence": "SLVIVLPALIFL", "protein stability index": "0.545 ± 0.013"}
{"sequence": "SPAIRAILAPAG", "protein stability index": "0.504 ± 0.013"}
{"sequence": "SPLASLRFWCFC", "protein stability index": "0.768 ± 0.0088"}
{"sequence": "SPPPLFLIVLHL", "protein stability index": "0.562 ± 0.028"}
{"sequence": "SRCLALVICYRV", "protein stability index": "0.582 ± 0.031"}
{"sequence": "SRGKMTIVSNQI", "protein stability index": "0.734 ± 0.011"}
{"sequence": "SRGLVPMANRYC", "protein stability index": "0.7383 ± 0.0028"}
{"sequence": "SRPGRWRLYYVS", "protein stability index": "0.802 ± 0.016"}
{"sequence": "SRSVLLCFCWLC", "protein stability index": "0.4492 ± 0.0017"}
{"sequence": "SVFCSLFLFLFY", "protein stability index": "0.5013 ± 0.0034"}
{"sequence": "SVGCCLLCFFVL", "protein stability index": "0.563 ± 0.012"}
{"sequence": "SWMSQFSILLTA", "protein stability index": "0.122 ± 0.0092"}
{"sequence": "SYVLLQSYVSLV", "protein stability index": "0.623 ± 0.016"}
{"sequence": "TCVTLRYRLTFE", "protein stability index": "0.666 ± 0.027"}
{"sequence": "TFLFPLPFLFFI", "protein stability index": "0.0387 ± 0.0025"}
{"sequence": "TFRPWPLHILAL", "protein stability index": "0.219 ± 0.029"}
{"sequence": "THRAVGIGLRCC", "protein stability index": "0.637 ± 0.02"}
{"sequence": "TIRKCIIKWIKI", "protein stability index": "0.581 ± 0.031"}
{"sequence": "TKDFVIKKTKIS", "protein stability index": "0.7393 ± 0.0047"}
{"sequence": "TLDWKFGRGGIG", "protein stability index": "0.4083 ± 0.0019"}
{"sequence": "TVLGRDFALSVC", "protein stability index": "0.4916 ± 0.004"}
{"sequence": "TVYMVIRVIVWG", "protein stability index": "0.126 ± 0.046"}
{"sequence": "TYCFRVCAWRAN", "protein stability index": "0.706 ± 0.021"}
{"sequence": "VACLRLTVYVMG", "protein stability index": "0.0789 ± 0.015"}
{"sequence": "VASYVCIGVVWV", "protein stability index": "0.492 ± 0.061"}
{"sequence": "VCFLCIWLYSED", "protein stability index": "0.358 ± 0.013"}
{"sequence": "VCLFFFGYWCCL", "protein stability index": "0.555 ± 0.026"}
{"sequence": "VCLFRLVVFFPV", "protein stability index": "0.335 ± 0.024"}
{"sequence": "VCLLFRFCCWFW", "protein stability index": "0.357 ± 0.0081"}
{"sequence": "VCTFLLVSFFLS", "protein stability index": "0.315 ± 0.064"}
{"test_system": "Saccharomyces cerevisiae", "experiment": "protein stability index of tFT-peptide fusion (C-terminal peptide) (PSI (0-1 scale)); higher = more stable (slower turnover)", "conditions": "genetic background: das1 deletion; temperature: 30 C", "method": "as §1"}
{"sequence": "SLLLLSLCRFVG", "protein stability index": "0.6 ± 0.012"}
{"sequence": "SLPIFSGVASVR", "protein stability index": "0.64 ± 0.028"}
{"sequence": "SLSCYSFFVLAL", "protein stability index": "0.404 ± 0.03"}
{"sequence": "SLVIVLPALIFL", "protein stability index": "0.393 ± 0.013"}
{"sequence": "SPAIRAILAPAG", "protein stability index": "0.404 ± 0.021"}
{"sequence": "SPLASLRFWCFC", "protein stability index": "0.6502 ± 0.0037"}
{"sequence": "SPPPLFLIVLHL", "protein stability index": "0.446 ± 0.021"}
{"sequence": "SRCLALVICYRV", "protein stability index": "0.439 ± 0.021"}
{"sequence": "SRGKMTIVSNQI", "protein stability index": "0.652 ± 0.021"}
{"sequence": "SRGLVPMANRYC", "protein stability index": "0.656 ± 0.03"}
{"sequence": "SRPGRWRLYYVS", "protein stability index": "0.679 ± 0.0079"}
{"sequence": "SRSVLLCFCWLC", "protein stability index": "0.411 ± 0.038"}
{"sequence": "SVFCSLFLFLFY", "protein stability index": "0.4 ± 0.032"}
{"sequence": "SVGCCLLCFFVL", "protein stability index": "0.41 ± 0.03"}
{"sequence": "SWMSQFSILLTA", "protein stability index": "0.188 ± 0.021"}
{"sequence": "SYVLLQSYVSLV", "protein stability index": "0.474 ± 0.0091"}
{"sequence": "TCVTLRYRLTFE", "protein stability index": "0.564 ± 0.022"}
{"sequence": "TFLFPLPFLFFI", "protein stability index": "0.102 ± 0.019"}
{"sequence": "TFRPWPLHILAL", "protein stability index": "0.216 ± 0.038"}
{"sequence": "THRAVGIGLRCC", "protein stability index": "0.496 ± 0.029"}
{"sequence": "TIRKCIIKWIKI", "protein stability index": "0.475 ± 0.021"}
{"sequence": "TKDFVIKKTKIS", "protein stability index": "0.641 ± 0.019"}
{"sequence": "TLDWKFGRGGIG", "protein stability index": "0.348 ± 0.017"}
{"sequence": "TVLGRDFALSVC", "protein stability index": "0.361 ± 0.046"}
{"sequence": "TVYMVIRVIVWG", "protein stability index": "0.141 ± 0.055"}
{"sequence": "TYCFRVCAWRAN", "protein stability index": "0.583 ± 0.0094"}
{"sequence": "VACLRLTVYVMG", "protein stability index": "0.128 ± 0.025"}
{"sequence": "VASYVCIGVVWV", "protein stability index": "0.301 ± 0.023"}
{"sequence": "VCFLCIWLYSED", "protein stability index": "0.227 ± 0.041"}
{"sequence": "VCLFFFGYWCCL", "protein stability index": "0.469 ± 0.015"}
{"sequence": "VCLFRLVVFFPV", "protein stability index": "0.217 ± 0.021"}
{"sequence": "VCLLFRFCCWFW", "protein stability index": "0.305 ± 0.013"}
{"sequence": "VCTFLLVSFFLS", "protein stability index": "0.237 ± 0.028"}
